Patent publication US20240374744

Tested on: huHF(+)-DOX (huHF(+) protein nanoparticle-doxorubicin conjugate)
Sequence (chain, as listed by the source): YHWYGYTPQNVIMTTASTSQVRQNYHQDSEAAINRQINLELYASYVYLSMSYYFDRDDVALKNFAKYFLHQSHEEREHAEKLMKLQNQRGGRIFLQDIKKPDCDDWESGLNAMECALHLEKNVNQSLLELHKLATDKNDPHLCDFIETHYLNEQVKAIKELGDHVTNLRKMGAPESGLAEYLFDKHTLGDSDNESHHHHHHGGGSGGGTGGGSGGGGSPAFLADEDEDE

| Substance | cleavage of the conjugate and release of doxorubicin (native-PAGE, UV absorbance), enzyme in LPM mixture | cleavage of the conjugate and release of doxorubicin (native-PAGE, Coomassie staining, UV absorbance of doxorubicin) |
| --- | --- | --- |
| cathepsin B | it was observed that the peptide was not specifically cleaved thereby the drug was not selectively released | – |
| cathepsin D | it was observed that the peptide was not specifically cleaved thereby the drug was not selectively released | – |
| cathepsin E | – | From 3 hours after staining, it was visually observed that the portion to which the anticancer drug was bound in the conjugate was effectively cleaved by cathepsin E |
| cathepsin L | it was observed that the peptide was not specifically cleaved thereby the drug was not selectively released | – |
